Source: US20240270857A1 (CHIA TAI TIANQING PHARMACEUTICAL GROUP, published 2024)
Where a chain is given by its changes, count along the chain named.

T1: cynomolgus IL-36R overexpressed on 293T-CynoIL36R-NFκB cells (cynomolgus monkey)
T1 construct: Entry includes the signal peptide; also called monkey IL-36R
T1 chain: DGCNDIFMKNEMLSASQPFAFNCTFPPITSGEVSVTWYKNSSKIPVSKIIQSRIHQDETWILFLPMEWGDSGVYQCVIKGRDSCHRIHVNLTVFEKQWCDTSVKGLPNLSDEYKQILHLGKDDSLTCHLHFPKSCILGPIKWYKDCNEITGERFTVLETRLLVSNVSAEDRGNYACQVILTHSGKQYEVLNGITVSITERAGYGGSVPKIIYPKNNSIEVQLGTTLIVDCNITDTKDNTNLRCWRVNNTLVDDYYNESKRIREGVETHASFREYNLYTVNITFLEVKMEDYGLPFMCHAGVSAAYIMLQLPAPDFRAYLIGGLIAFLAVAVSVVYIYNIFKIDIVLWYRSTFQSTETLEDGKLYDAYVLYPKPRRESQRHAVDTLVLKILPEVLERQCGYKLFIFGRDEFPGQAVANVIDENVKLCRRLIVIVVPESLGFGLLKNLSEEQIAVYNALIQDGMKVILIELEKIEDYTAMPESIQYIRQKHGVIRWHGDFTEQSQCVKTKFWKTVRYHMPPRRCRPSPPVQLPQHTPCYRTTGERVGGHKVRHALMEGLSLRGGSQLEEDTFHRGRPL

T2: CynoIL36R-ECD mFc recombinant protein (cynomolgus monkey)
T2 construct: Made in ExpiCHO, purified on Protein A; also called cynomolgus IL-36R extracellular region with mouse antibody heavy chain Fc
T2 chain: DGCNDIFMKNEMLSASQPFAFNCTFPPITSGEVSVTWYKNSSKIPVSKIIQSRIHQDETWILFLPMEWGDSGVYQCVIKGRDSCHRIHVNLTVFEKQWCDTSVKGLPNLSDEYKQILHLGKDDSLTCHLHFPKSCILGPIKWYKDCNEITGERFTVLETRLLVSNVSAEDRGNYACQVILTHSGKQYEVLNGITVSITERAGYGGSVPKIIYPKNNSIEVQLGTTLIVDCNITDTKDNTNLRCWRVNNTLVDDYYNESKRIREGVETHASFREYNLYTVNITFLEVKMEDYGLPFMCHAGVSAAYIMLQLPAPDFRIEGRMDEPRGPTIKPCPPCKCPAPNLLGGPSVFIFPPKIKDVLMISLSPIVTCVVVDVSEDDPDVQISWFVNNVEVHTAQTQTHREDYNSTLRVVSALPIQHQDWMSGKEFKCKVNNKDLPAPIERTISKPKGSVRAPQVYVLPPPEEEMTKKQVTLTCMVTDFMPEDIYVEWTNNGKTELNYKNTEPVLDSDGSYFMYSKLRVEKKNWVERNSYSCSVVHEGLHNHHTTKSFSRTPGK

T3: Human IL-1Rrp2/IL-1R6 protein, His Tag (ACROBiosystems, IL2-H52H6) (human, UniProt Q9HB29 20-335)
T3 construct: Bought protein; the soluble protein is likely only the extracellular part; also called hIL-36R; human IL36R antigen; not shown: His tag
T3 sequence: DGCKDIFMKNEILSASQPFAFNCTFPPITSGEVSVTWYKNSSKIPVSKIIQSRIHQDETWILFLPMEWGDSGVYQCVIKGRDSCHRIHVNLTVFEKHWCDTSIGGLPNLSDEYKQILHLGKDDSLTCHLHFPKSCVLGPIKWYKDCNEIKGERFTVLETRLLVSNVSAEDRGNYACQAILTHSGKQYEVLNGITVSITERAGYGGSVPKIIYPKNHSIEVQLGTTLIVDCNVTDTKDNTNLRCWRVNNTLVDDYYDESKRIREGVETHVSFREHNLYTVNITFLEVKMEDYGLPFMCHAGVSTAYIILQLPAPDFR

B1: BI655130 (antibody, human IgG1, kappa, L234A L235A)
heavy: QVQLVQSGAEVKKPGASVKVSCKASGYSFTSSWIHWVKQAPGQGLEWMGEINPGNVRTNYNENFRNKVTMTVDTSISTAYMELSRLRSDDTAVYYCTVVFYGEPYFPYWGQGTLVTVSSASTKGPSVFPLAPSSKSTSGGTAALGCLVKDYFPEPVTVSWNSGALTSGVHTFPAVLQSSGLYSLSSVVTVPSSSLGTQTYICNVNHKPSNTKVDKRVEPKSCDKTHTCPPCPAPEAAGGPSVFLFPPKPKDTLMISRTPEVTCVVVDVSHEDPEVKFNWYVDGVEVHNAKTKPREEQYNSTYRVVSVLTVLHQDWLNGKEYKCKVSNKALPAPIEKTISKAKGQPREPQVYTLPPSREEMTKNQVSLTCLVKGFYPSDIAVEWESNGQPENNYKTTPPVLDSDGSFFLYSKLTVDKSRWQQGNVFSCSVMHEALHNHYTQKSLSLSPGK
light: QIVLTQSPGTLSLSPGERATMTCTASSSVSSSYFHWYQQKPGQAPRLWIYRTSRLASGVPDRFSGSGSGTDFTLTISRLEPEDAATYYCHQFHRSPLTFGAGTKLEIKRTVAAPSVFIFPPSDEQLKSGTASVVCLLNNFYPREAKVQWKVDNALQSGNSQESVTEQDSKDSTYSLSSTLTLSKADYEKHKVYACEVTHQGLSSPVTKSFNRGEC
notes: also called Spesolimab
B2: hz72C1-1.3 (antibody, human IgG4 S228P, kappa)
heavy: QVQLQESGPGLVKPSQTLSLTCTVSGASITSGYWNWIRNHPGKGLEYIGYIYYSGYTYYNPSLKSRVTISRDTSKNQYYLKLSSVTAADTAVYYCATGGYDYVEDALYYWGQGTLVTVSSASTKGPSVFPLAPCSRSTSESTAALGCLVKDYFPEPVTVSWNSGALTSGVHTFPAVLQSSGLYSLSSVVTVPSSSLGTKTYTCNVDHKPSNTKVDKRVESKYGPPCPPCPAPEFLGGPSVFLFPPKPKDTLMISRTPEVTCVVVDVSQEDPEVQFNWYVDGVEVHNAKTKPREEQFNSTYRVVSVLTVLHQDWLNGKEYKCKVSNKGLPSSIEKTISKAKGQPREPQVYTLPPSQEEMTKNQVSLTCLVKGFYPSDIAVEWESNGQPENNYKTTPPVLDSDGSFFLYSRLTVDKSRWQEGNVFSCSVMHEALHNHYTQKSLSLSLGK
light: DIQMTQSPSSLSASVGDRVTITCRASSNVRYMYWYQQKPGKAPKLWIYLTSNLASGVPSRFSGSGSGTSYTLTISSLQPEDFATYYCQQFTTSPYTFGQGTKLEIKRTVAAPSVFIFPPSDEQLKSGTASVVCLLNNFYPREAKVQWKVDNALQSGNSQESVTEQDSKDSTYSLSSTLTLSKADYEKHKVYACEVTHQGLSSPVTKSFNRGEC
notes: Humanized, human IgG4 / kappa
B3: hz72C1-2.1 (antibody, human IgG4 S228P, kappa)
heavy: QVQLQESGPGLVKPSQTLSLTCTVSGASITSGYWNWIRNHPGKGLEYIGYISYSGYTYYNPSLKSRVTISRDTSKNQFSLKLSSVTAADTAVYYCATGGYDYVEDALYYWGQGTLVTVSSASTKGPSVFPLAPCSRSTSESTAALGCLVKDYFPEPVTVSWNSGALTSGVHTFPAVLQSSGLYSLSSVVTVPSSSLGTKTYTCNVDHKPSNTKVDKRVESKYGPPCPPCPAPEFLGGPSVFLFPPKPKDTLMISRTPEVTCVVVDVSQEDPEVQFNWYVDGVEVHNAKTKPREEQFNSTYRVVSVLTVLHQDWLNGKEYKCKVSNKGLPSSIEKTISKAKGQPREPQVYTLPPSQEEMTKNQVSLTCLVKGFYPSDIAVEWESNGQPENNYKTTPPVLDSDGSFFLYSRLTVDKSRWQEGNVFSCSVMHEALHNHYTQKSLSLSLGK
light: B2 light with F90Y
notes: Humanized, human IgG4 / kappa
B4: hz72C1-2.2 (antibody, human IgG4 S228P, kappa)
heavy: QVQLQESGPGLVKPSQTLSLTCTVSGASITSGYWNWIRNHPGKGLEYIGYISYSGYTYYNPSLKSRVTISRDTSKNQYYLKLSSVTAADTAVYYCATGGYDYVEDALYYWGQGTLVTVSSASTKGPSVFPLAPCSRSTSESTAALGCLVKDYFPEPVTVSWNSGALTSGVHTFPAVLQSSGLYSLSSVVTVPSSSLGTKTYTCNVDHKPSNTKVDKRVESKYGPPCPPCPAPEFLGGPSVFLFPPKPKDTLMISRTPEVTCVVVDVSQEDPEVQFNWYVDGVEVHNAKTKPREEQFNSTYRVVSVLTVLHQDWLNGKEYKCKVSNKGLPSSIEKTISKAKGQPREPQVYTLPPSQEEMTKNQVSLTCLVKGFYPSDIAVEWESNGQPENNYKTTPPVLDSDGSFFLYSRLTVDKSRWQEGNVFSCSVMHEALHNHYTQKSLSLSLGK
light: B2 light with F90Y
notes: Humanized, human IgG4 / kappa
B5: hz72C1-2.3 (antibody, human IgG4 S228P, kappa)
heavy: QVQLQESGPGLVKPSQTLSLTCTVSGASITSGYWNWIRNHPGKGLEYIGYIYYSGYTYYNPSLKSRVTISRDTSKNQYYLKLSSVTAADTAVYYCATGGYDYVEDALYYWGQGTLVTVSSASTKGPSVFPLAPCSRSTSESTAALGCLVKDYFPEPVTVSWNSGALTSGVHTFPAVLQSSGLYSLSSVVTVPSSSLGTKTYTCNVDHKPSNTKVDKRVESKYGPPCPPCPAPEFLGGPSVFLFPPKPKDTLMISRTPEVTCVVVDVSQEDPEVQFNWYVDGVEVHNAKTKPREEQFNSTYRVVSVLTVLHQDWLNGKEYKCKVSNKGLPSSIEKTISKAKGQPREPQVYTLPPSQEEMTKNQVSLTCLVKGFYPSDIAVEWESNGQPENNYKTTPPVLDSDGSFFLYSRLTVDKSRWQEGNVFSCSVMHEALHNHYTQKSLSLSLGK
light: B2 light with F90Y
notes: Humanized, human IgG4 / kappa

Target: T1, cynomolgus IL-36R overexpressed on …
Experiment: FACS on 293T-CynoIL36R-NFκB cells, ratio of MFI to background MFI
Description: After the cells was washed with PBS, the cells were resuspended with 100 μL of PBS and then the fluorescence signal was detected using a flow cytometer (BD, Accuri C6). […] The ratio was the ratio of mean fluorescence intensity (MFI) of the experimental group/the background MFI, and the resulting data were analyzed using GraphPad Prism.
Affinity, binding and blocking assays for humanized antibodies hz72C1-1.1, hz72C1-1.2, hz72C1-1.3, hz72C1-2.1, hz72C1-2.2 and hz72C1-2.3 as well as hz84C4-1.1, hz84C4-1.2, hz84C4-1.3, hz84C4-1.4, hz84C4-1.5, hz84C4-2.1, hz84C4-2.2, hz84C4-2.3, hz84C4-2.4 and hz84C4-2.5 were performed according to the methods of Example 4, Example 5. Example 6, Example 7 and Example 8.

Binder | EC50
B1 | 7.64 nM

Target: T2, CynoIL36R-ECD mFc recombinant protein
Experiment: ELISA, plate coated with CynoIL36R-ECD mFc, HRP-protein A/G, OD450
Description: (§1) The binding activity of anti-IL-36R antibodies to IL-36R was analyzed by ELISA using human IL-1Rrp2/IL-1R6 protein, His Tag (ACROBiosystems, IL2-H52H6) and CynoIL36R-ECD mFc (for detection of chimeric and humanized antibodies), and hIL36R-ECD hFc and CynoIL36R-ECD hFc protein (for detection of hybridoma antibodies) as antigens. A 96-well plate (Costar, 9018) was coated with 2 μg/mL antigen at 100 μL/well and incubated overnight at 4° C. After the 96-well plate was washed with a washing buffer (PBS containing 0.05% v/v Tween 20), a blocking buffer (PBS containing 2% bovine serum albumin) was added for blocking at 37° C. for 2 h. After the 96-well plate was washed with the washing buffer, 100 μL of the gradient diluted anti-IL-36R antibody of the present disclosure or the reference antibody BI655130 (the initial concentration of the antibody was 66 nM, 4-fold gradient dilution) was added to each well, and the plate was incubated at room temperature for 1 h. After the 96-well plate was washed with the washing buffer, 100 μL of horseradish peroxidase-conjugated recombinant protein A/G (TheroScientific, 32490) was added to each well, and the plate was incubated at room temperature for 1 h. After the 96-well plate was washed with the washing buffer, 100 μL of a TMB solution (Thermo, 00-4201-56) was added to each well, and the plate was incubated at room temperature for 2 min. Finally, 100 μL of a stop solution (2 N H₂SO₄) was added to each well to stop the reaction. Absorbance was read at 450 nm using a microplate reader (PE, Envision), the resulting data was analyzed using GraphPad Prism, and EC₅₀ was calculated. Binding EC₅₀ of the chimeric anti-IL-36R antibodies to hIL-36R in an ELISA assay is shown in FIG. 1. and binding EC₅₀ of the chimeric anti-IL-36R antibodies to CynoIL-36R in an ELISA assay is shown in FIG. 2. The binding of BI655130 is shown as a control, and the binding of IgG4 is shown as a negative control.

Binder | EC50
B1 | 1.97 nM
B2 | 2.86 nM
B3 | 10.5 nM
B4 | 4.87 nM
B5 | 6.38 nM

Each binder was assayed against T3, Human IL-1Rrp2/IL-1R6 protein, His Tag … (assay: ELISA, plate coated with human IL-1Rrp2/IL-1R6 His Tag, HRP-protein A/G, OD450).
Description: as §1

Binder | EC50
B1 | 0.764 nM
B2 | 2.86 nM
B3 | 9.35 nM
B4 | 4.88 nM
B5 | 8.9 nM
